Measurements published in patent publication US20180312565A1 (Affibody, published 2018).

Assays:
[1] = molecular target: T1, PD-L1 on PD-L1 expressing cells (IFNg-stimulated THP-1 cells; MDA-MB-231 cells) (UniProt Q9NZQ7 19-290, limits assumed); test: FACS, MDA-MB-231 cells, 0.625 µg/ml; negative control (buffer) 69
T1 construct: whole, on cells
Procedure: Cells incubated with buffer alone were used as negative controls. The cells were incubated for 1 h at 8° C. in the dark, washed twice with 100 μl staining buffer, and resuspended in 100 μl of staining buffer containing 2.5 μg/ml of a goat-anti-human IgG-Alexa488 (Molecular Probes, cat. no. A11013) or, for cells stained with the positive control antibody, goat anti-mouse IgG-Alexa647 antibody (Life Technologies, cat. No. A21236). The cells were incubated for 1 h at 8° C. in the dark, washed twice with 100 μl staining buffer and resuspended in 300 μl of staining buffer. Data from 10,000 cells were obtained using a FACS Calibur ([…]) and the data was analyzed using Flowing software 2.5.0 (Turku University). Mean fluorescence intensity (MFI) was used as a read out of binding capacity.

[2] = molecular target: T2, human PD-L1 Fc Chimera (R&D Systems, cat. no. 156-B7-100) (human, UniProt Q9NZQ7 19-239, biotinylated with Sulfo-NHS-LC-Biotin in ELISA and AlphaLISA; not biotinylated in SPR); test: SPR capture assay, control
T2 construct: bought; also called hPD-L1; biotinylated hPD-L1; not shown: Fc part of the bought Fc chimera, not described
T2 sequence (Q9NZQ7 19-239, change not shown): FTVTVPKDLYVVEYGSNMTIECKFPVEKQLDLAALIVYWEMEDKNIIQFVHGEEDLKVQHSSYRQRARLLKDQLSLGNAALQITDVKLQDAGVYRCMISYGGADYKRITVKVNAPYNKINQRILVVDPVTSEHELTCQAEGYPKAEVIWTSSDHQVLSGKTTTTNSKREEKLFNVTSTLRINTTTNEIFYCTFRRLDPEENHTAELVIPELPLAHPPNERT

T1 sequence (Q9NZQ7 19-290 limits assumed): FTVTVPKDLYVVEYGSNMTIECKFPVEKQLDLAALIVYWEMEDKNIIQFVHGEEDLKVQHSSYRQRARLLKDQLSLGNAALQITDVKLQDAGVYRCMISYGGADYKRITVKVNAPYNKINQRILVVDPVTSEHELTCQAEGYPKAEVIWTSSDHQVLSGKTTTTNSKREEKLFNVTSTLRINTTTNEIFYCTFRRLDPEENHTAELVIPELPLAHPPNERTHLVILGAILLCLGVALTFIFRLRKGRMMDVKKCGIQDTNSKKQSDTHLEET

B1: Z15170-HCLam (bispecific antibody)
heavy: not shown
light: EIVLTQSPATLSLSPGERATLSCRASKGVSTSGYSYLHWYQQKPGQAPRLLIYLASYLESGVPARFSGSGSGTDFTLTISSLEPEDFAVYYCQHSRDLPLTFGGGTKVEIKRTVAAPSVFIFPPSDEQLKSGTASVVCLLNNFYPREAKVQWKVDNALQSGNSQESVTEQDSKDSTYSLSSTLTLSKADYEKHKVYACEVTHQGLSSPVTKSFNRGEC
B1 gave an MFI [1] of 161.

B2: HCLam-Z15170 (bispecific antibody)
heavy: not shown
light: B1 light
For B2, the MFI [1] was 274.

B3: ipilimumab (Yervoy, Bristol-Myers Squibb) (antibody, V domains shown)
VH: QVQLVESGGGVVQPGRSLRLSCAASGFTFSSYTMHWVRQAPGKGLEWVTFISYDGNNKYYADSVKGRFTISRDNSKNTLYLQMNSLRAEDTAIYYCARTGWLGPFDYWGQGTLVTVSS
VL: not shown
B3 gave an MFI [1] of 64.

B4: Lam (PD-1 binding monoclonal antibody with the CDR sequences of pembrolizumab) (antibody, human IgG4 S228P, kappa, V domains shown)
VH: QVQLVQSGVEVKKPGASVKVSCKASGYTFTNYYMYWVRQAPGQGLEWMGGINPSNGGTNFNEKFKNRVTLTTDSSTTTAYMELKSLQFDDTAVYYCARRDYRFDMGFDYWGQGTTVTVSS
VL: EIVLTQSPATLSLSPGERATLSCRASKGVSTSGYSYLHWYQQKPGQAPRLLIYLASYLESGVPARFSGSGSGTDFTLTISSLEPEDFAVYYCQHSRDLPLTFGGGTKVEIKR
B4: no binding (tested: 100 or 500 nM PD-L1) [2].
